According to patent US20140094415A1:
Read-outs that look alike come from different tables or passages of the source. Where no end group is shown, it is not given here.

What was measured:
[1] = target: T1, HIS-PDZ1-2 protein (PSD-95 PDZ1-2 tandem) (human), P78352; test: fluorescence polarization, saturation binding: increasing PDZ1-2 on 0.5 nM probe
[2] = target: T1, HIS-PDZ1-2 protein (PSD-95 PDZ1-2 …); test: fluorescence polarization, heterologous competition against AB143 probe
[3] = target: T1, HIS-PDZ1-2 protein (PSD-95 PDZ1-2 …); test: as above; remark: listed apart in the source

Kd [1] [nM] | Ki [2] [nM] | Ki [3] [nM] | Binder
7.8 |  |  | IETAV (also: dimer: two IETAV chains on NPEG4 scaffold, 5-FAM label, position not given here) [5-FAM-labeled NPEG4(IETAV)2 probe, AB143]
 | 9.5 | 9.3 | IETAV (modifications not checked) [NPEG4(IETAV)2 (AB141)]
 | 9.5 |  | IETAV (modifications not checked) [PEG4(IETAV)2 (AB125)]
